T1: GAL4 DBD-p9 EIAVUK, P69732
T1 chain: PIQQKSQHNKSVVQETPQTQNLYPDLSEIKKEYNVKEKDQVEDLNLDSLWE

T2: Gal4 DBD-HIV-1 p6 (wild type), P12493
T2 chain: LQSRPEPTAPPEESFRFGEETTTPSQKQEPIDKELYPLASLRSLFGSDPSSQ

B1: Gal4 AD-ALIXΔ541–582, Q8WUM4-1 V509A (protein)
chain: MATFISVQLKKTSEVDLAKPLVKFIQQTYPSGGEEQAQYCRAAEELSKLRRAAVGRPLDKHEGALETLLRYYDQICSIEPKFPFSENQICLTFTWKDAFDKGSLFGGSVKLALASLGYEKSCVLFNCAALASQIAAEQNLDNDEGLKIAAKHYQFASGAFLHIKETVLSALSREPTVDISPDTVGTLSLIMLAQAQEVFFLKATRDKMKDAIIAKLANQAADYFGDAFKQCQYKDTLPKEVFPVLAAKHCIMQANAEYHQSILAKQQKKFGEEIARLQHAAELIKTVASRYDEYVNVKDFSDKINRALAAAKKDNDFIYHDRVPDLKDLDPIGKATLVKSTPVNVPISQKFTDLFEKMVPVSVQQSLAAYNQRKADLVNRSIAQMREATTLANGVLASLNLPAAIEDVSGDTVPQSILTKSRSVIEQGGIQTVDQLIKELPELLQRNREILDESLRLLDEEEATDNDLRAKFKERWQRTPSNELYKPLRAEGTNFRTVLDKAVQADGQAKECYQSHRDTIVLLCKPEPELNAAIPSANPAKTMQGSEVVNVLKSLLSNLDEVKKEREGLENDLKSVNFDMTSKFLTALAQDGVINEEALSVTELDRVYGGLTTKVQESLKKQEGLLKNIQVSHQEFSKMKQSNNEANLREEVLKNLATAYDNFVELVANLKEGTKFYNELTEILVRFQNKCSDIVFARKTERDELLKDLQQSIAREPSAPSIPTPAYQSSPAGGHAPTPPTPAPRTMPPTKPQPPARPPPPVLPANRAPSATAPSPVGAGTAAPAPSQTPGSAPPPQAQGPPYPTYPGYPGYCQMPMPMGYNPYAYGQYNMPYPPVYHQSPGQAPYPGPQQPSYPFPQPPQQSYYPQQ

How the values were obtained:
[1] = molecular target: p9 p9 (Equine infectious anemia virus) (UniProt P69730); assay: SPR; conditions: cited from earlier work
[2] = molecular target: T1, GAL4 DBD-p9 EIAVUK, P69732; assay: yeast two-hybrid, β-galactosidase assay; conditions: chain shown with the change;; parent: est. 1.2; read off a plot
[3] = molecular target: T2, Gal4 DBD-HIV-1 p6 (wild type), P12493; assay: yeast two-hybrid, β-galactosidase assay; conditions: chain shown with the change;; parent: est. 0.85; read off a plot

| Molecule | Kd [1] | other: relative β-Gal activity (relative to ALIX wild type = 1) [2] | other: relative β-Gal activity (relative to ALIX wild type = 1) [3] |
| --- | --- | --- | --- |
| ALIX deleted from PRR (from UniProt Q8WUM4) | 1200 nM | – | – |
| B1 | – | 1.1 | 0.05 |

From publication PMC2397435 (2008)
